Where a chain is given by its changes, count along the chain named. In names and notes the source's numbering stands. Like-named read-outs stand apart in the source and are kept apart here.
T1: eIF4E (wheat, UniProt P29557 1-215)
T1 sequence: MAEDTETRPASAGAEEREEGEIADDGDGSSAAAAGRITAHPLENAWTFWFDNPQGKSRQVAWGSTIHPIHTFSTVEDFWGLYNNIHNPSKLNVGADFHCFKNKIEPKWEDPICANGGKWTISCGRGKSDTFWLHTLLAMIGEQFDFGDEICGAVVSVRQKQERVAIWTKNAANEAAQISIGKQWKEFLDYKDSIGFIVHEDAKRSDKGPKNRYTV

B1: PEMV2 BL3-6 (crystallization, L1 mutant) (structured_RNA)
RNA: GGUAGAACACGUGGGAUAGGGGAUGACCUUGUCGACCGAAACACGGUCCCCUGCUCCUUCGAGCUGGCAAGGCGCUCACAGGUUCUACC
B2: PEMV2 A23G (structured_RNA)
RNA: GGUAGAACACGUGGGAUAGGGGGUGACCUUGUCGACCGGUUAUCGGUCCCCUGCUCCUUCGAGCUGGCAAGGCGCUCACAGGUUCUAC
B3: PEMV2 G21A (structured_RNA)
RNA: B2 RNA with G21A, G23A
B4: PEMV2 C49U:G19A (structured_RNA)
RNA: B2 RNA with G19A, G23A, C49U
B5: PEMV2 U24C (structured_RNA)
RNA: B2 RNA with G23A, U24C
B6: PEMV2 C50U (structured_RNA)
RNA: B2 RNA with G23A, C50U
B7: PEMV2 U17C:A18U (structured_RNA)
RNA: B2 RNA with U17C, A18U, G23A
B8: PEMV2 U52C:A26G (structured_RNA)
RNA: B2 RNA with G23A, A26G, U52C
B9: PEMV2 C49U (structured_RNA)
RNA: B2 RNA with G23A, C49U
B10: PEMV2 U65C (structured_RNA)
RNA: B2 RNA with G23A, U65C
B11: PEMV2 G21C (structured_RNA)
RNA: B2 RNA with G21C, G23A
B12: PEMV2 U52C (structured_RNA)
RNA: B2 RNA with G23A, U52C
B13: PEMV2 C50U:G20A (structured_RNA)
RNA: B2 RNA with G20A, G23A, C50U

Experiments:
eIF4E [1] = biological target: T1, eIF4E; test: EMSA
eIF4E [2] = biological target: T1, eIF4E; test: EMSA; remark: listed apart in the source

Row | Binder | binding result (eIF4E [1]) | binding result (eIF4E [2])
1 | B1 | binds | –
2 | B2 | – | no binding
3 | B3 | – | no binding
4 | B4 | – | no binding
5 | B5 | – | no binding
6 | B6 | – | no binding
7 | B7 | – | binds
8 | B8 | – | no binding
9 | B9 | – | binds
10 | B10 | – | no binding
11 | B11 | – | no binding
12 | B12 | – | no binding
13 | B13 | – | no binding
